B1: MIN-C2 scFv (heavy chain variable-linker-light chain variable, C-terminal poly-histidine tag) (scFv)
scFv: EVQLEESGGGLVKPGGSLKLSCAASGFTFSGYAMSWVRQTPEKRLEWVATISSGGTYIYYPDSVKGRFTISRDNAKNTLYLQMSSLRSEDTAMYYCARLGGDNYYEYFDVWGAGTTVTVSSAKTTPPSVYGGGGSGGGGSGGGGSDIVITQSTASLGVSLGQRATISCRASKSVSTSGYSYMHWYQQRPGQPPKLLIYLASNLESGVPARFSGSGSGTDFTLNIHPVEEEDAATYYCQHSRELPFTFGGGTKLEIKRADAAPTVSVDHHHHHH
notes: part was further purified on a PSMGFR peptide column; also called scFv protein; recombinant scFv
B2: MIN-C2 Fab (papain digestion of MIN-C2 antibody) (Fab, V domains shown)
VH: EVQLEESGGGLVKPGGSLKLSCAASGFTFSGYAMSWVRQTPEKRLEWVATISSGGTYIYYPDSVKGRFTISRDNAKNTLYLQMSSLRSEDTAMYYCARLGGDNYYEYFDVWGAGTTVTVSS
VL: DIVITQSTASLGVSLGQRATISCRASKSVSTSGYSYMHWYQQRPGQPPKLLIYLASNLESGVPARFSGSGSGTDFTLNIHPVEEEDAATYYCQHSRELPFTFGGGTKLEIKR
notes: Enzymatic Fab of about 50 kD made by papain digestion of the parent mAb; also called monovalent form of MIN-C2

Legend:
[1] = biological target: T1, MUC1* extracellular domain peptide (PSMGFR, primary sequence of the MUC1 growth factor receptor); experiment: ELISA on plate-adsorbed peptide; reference: refolded scFv before peptide affinity chromatography
T1 construct: Synthetic peptide adsorbed onto ELISA plates; The immunogen carried an extra C-terminal cysteine for KLH conjugation; also called MUC1* peptide; PSMGFR peptide
T1 peptide: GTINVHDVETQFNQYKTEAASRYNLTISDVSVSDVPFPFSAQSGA

[2] = biological target: T1, MUC1* extracellular domain peptide …; experiment: competition ELISA, peptide on plate, competitor: parent MIN-C2 antibody
Experimental: To test the ability of the Fab produced by papain digestion to compete with the parent antibody for binding to the MUC1* peptide, varying concentrations of the Fab were added. After wash steps, the ELISA was processed by standard methods.

Binder	fold higher specific activity after antigen affinity purification [1] [fold]	fold improvement of specific binding after antigen affinity purification [1] [fold]	binding result [2]
B1	~10	10	–
B2	–	–	binds

Source: US20200239594A1 (MINERVA BIOTECHNOLOGIES, published 2020)
